Laboratory results from the DeepSol protein solubility set.

Assay: soluble on expression in E. coli; label from the status in PepcDB or PDB records

NTATVITVGNYKGGAGKTTNVVLLAYKLAKKGLKVCVLDLDPQSNATKSLLLTKSSLYQDEVVTIEKTLMTGISEKNLDGLEVKIMDNLYLLPSYIDFEDFPKYLYKNTSNQREEDYYLKNIFTPLQGKYDIVLIDVPPMSKAVTRNAVICSDYVLISLQTHERSLSGAESYVEELNKLHNEYDLDLEVVGVLPVIHKNNGSVDQYVMEVAKETFGEDNLFENVVPQMERIKRFDVNGITDKDRHDQKVLNLYDKVSDELLDRINYFEEEKEGAIN
soluble on expression in E. coli: not soluble

MKHITIIGAGLAGTLCGLYLARRGYEVELFESRPDIRNSPTDYGRSINLALSCRGITALKAMNLLSEVNKIMVPMRARAIHEANGEVHYQPFGRYIDEYINAISRSDLNALLLNKAELCPNIKLHFNMKLHSLDIHNKKIKFENKNGDFVEASYHRLIGADGAPSHVRDMLKNEGIVSASRDFLSHGYKELSISKKHTKGMAREHLHLWPRDSFMLLGNPNPDDSITGSLFLANEGKDSFAELNNEEKLHLFFKTQFPDAYAAMPNLVQEFFGNPTGHLSTIQCSPWYYKDECLLIGDAAHGIIPFFGQGMNSAFEDCRILDELLDEYQDDWSRVNPLFYEQRKVNTDAIAKMSMDNYHEIHSDIRNPKFILQKQIERELMLRYPEHYVSMHVLVMFTNTPYAKAMAIGELQSGLLEQICFPITDIKELNWQEVEKLLGIYDKKLAKIILEHHHHHH
soluble on expression in E. coli: soluble

MKFKKLLSRIIIATMITFTGTLSYQAIEQTHISHAAHNYYGKKQCTWWAFKRRAQLGKPVSNRWGNAKNWYSNARRSGYATGHKPRKYAVMQSTRGYYGHVAVVEKVYKNGKIKISEYNYNVPLGYGTRIISKSSARNYNYIYLEHHHHHH
soluble on expression in E. coli: not soluble

DQVDVKDCANNEIKKVMVDGCHGSDPCIIHRGKPFTLEALFDANQNTKTAKIEIKASLDGLEIDVPGIDTNACHFVKCPLVKGQQYDIKYTWNVPKIAPKSENVVVTVKLIGDNGVLACAIATHGKIRD
soluble on expression in E. coli: soluble

MAFYLPDWSCCGLWLFGRPRNRYSQLPEEPETFECPDRWRAEIDLGLPPGVQVGDLLRNEQTMGSLRQVYLLAVQANSITDHLKRFDAVRVPESCRGVVEAQVAKLEAVRSVIWNTMISLAVSGIEMDENGLKALLDKQAGDSLALMEMEKVATALKMDETGAWAQEISAVVSSVTAPSASAPFINSAFEPEVPTPVLAPPPVVRQPEHSGPTELALT
soluble on expression in E. coli: not soluble

MGSDKIHHHHHHMDDIKSQIKELRLGAKIRKLRQDRRLTLQELSELSGLSKPLLSQIENDQVTPPIATLLKISKGLKVGIHYFFEEEEDQQKVVLTRAAQQQPTRRRSGNDAPHGYIYRSLAPGIRHKPMEPFLVEFELTDWSDSFFYRHDGFEFIYLLDGELEFHYGSDVMRLLPGDSIYYDSSEPHGYVSVGEERARAVAVLYTRD
soluble on expression in E. coli: not soluble

MWKTASDKGLGHLLRDVWSLLNEEERELLDKEIQPFPCKKASTVFSEGDIPNNLFYLYEGKIKILREGVYGRFHISRIVKPGQFFGMRPYFAEETCSSTAIAVENSKVLAIPVEAIEALLKGNTSFCRYFLKALAKELGYAERRTVTLTQKHVRGRLAETLLILKENFGFENDGATLSIYLSREELATLSNMTVSNAIRTLSTFVSERMLALDGKRIKIIDCDRLQKTARSG
soluble on expression in E. coli: soluble

MGSDKIHHHHHHMMNTTETAPVLNPALEDEYSKALDEIKQFGEAQTHTVHDLGSATWAMRKLGELNKEDAEARKVVQANIDQLNEWLQHSLEARQSRRNYLEHEVLAYVANNRKHDPKYKLDTPYGKVSFTVKRKATPAISDETQVLNFIKSNWNESEQTQVIKRTEKVLVSELKKQVTVAGDKVIDEDGQPIPGMHVDPAGTETPHIKPIQMTEALS
soluble on expression in E. coli: not soluble

MGSDKIHHHHHHMNRKLIQIDQLKNQLTQYRPLSESEVKRLREEFIIESSYNSNAIEGNTITLRETVLILKEGMTIAEKPLREHLDIIGFKDAFNYIYELVANNEPLSERTIKDIHSLVLMNNAEGRGVYRKIPVRILGAENEPTAPYLIAEEMQSLIEKYQQKLTALHPIEAISWLHLAFESIHPFIDGNGRTGRLLINFELLKHGYLPVDIKFTHRANYYQCFDDFHKNQQDISRLVELISRYELTELERYLAILEQRT
soluble on expression in E. coli: not soluble

MTQWKNALSEGQLQQALELLIEAIKASPKDASLRSSFIELLCIDGDFERADEQLMQSIKLFPEYLPGASQLRHLVKAAQARKDFAQGAATAKVLGENEELTKSLVSFNLSMVSQDYEQVSELALQIEELRQEKGFLANDTSFSDVRDIDDRLGGYIELFSTAGNYFLVPIASINTLEIKSATSLLESVWRPVEFDIDGLGEGEGHMPMTYVDSESDAQKLGRETDWKQIADKEVYLGLGLKCWLVGEMALPISDLQNLQVIKELALEHHHHHH
soluble on expression in E. coli: soluble

SRFRFCGDLDCPDWVLAEISTLAKISSVKLRLLCSQVLKELLGQGIDYEKILKLTADAKFESGDVKATVAVLSFILSSAAKHSVDSDSLSSELQQLGLPKEHATSLCRCYEEKQSPLQEHLRACSLRVNRLASVGWRVDYTLSSSLLHSVEEPMVHLQLQVVPAPGTQAQPVSMSLSADKFQVLLAELKQAQTMMTALG
soluble on expression in E. coli: soluble

MTTNSSSNTVVVYHSGYGHTHRMAEAVAEGAEATLHAIDAEGNLSEDGWAALDAADAIIFGTPTYMGGPSWQFKKFADASSKPWFSAKWQDKVFGGFTNSASLNGDKLNTLQYLVLLAGQHGGLWVSLGIKPSNLKSSVRNDANRMGSYIAPMAQSDADAAPEEMSVGDLETARLYGARVANVARQHKSTERV
soluble on expression in E. coli: soluble

MDTWKVGPVELKSRLILGSGKYEDFGVMREAIAAAKAEVVTVSVRRVELKAPGHVGLLEALEGVRLLPNTAGARTAEEAVRLARLGRLLTGERWVKLEVIPDPTYLLPDPLETLKAAERLIEEDFLVLPYMGPDLVLAKRLAALGTATVMPLAAPIGSGWGVRTRALLELFAREKASLPPVVVDAGLGLPSHAAEVMELGLDAVLVNTAIAEAQDPPAMAEAFRLAVEAGRKAYLAGPMRPREAASPSSPVEGVPFTPTGPRPGRGPQ
soluble on expression in E. coli: soluble

MLARYLNLIGRRSASPYRPQRLPAKFDNVIVAMSSGVDSSVAAALFAGEFPNTRGVYMQNWSESQSLDDPGKEPCYERDWRDVNRVAKHLNIRVDKVNFEQDYWIDVFEPMLRGYSEGSTPNPDIGCNKFVKFGKLREWLDEKYGTGNYWLVTGHYARVMQEMNGKGLFHLLRSIYRPKDQSYYLSQINSTVLSSLLLPIGHLTKPEVRDLAKYAGLPTAEKPDSQGICFVNNSQHGKFKNFLKHYLPSSPGDIITVDPQSGAKTTWGRHDGLWSYTIGQKVGISMPQADPNYQGTWFVSEKLRDTNEILIVRGRDNPALYSDTMRIENFSSLGPREDTINAFQNTGALTLQFRSLQVPVQIKSCKLNRSADNLDITIHLASKQRAITPGQSCCLYIDDRVLGSGPISHVNNNDTHA
soluble on expression in E. coli: soluble

MLDPGPNPAPRPSRDRAPHAVVIGSGFGGLAAAVRLGAKGYRVTVLEKLDKAGGRAYVHKQDGFSFDAGPTIVTAPYLFEELWKLCGKRMSDDITLKPMSPFYRIRFDDGTHFDYSDDRDAVLDQIAKFCPDDVPAYDRFMAASHEIFKVGFEQLGDQPFSHFTDMLKIAPAMIKLESYRSVYGLVAKHFKDPKLRQVFSFHPLLIGGNPFMSSSVYCLITYLEKQWGVHSAMGGTGALVTGLVNLIEGQGNTIRYNQDVRQIVVENGTACGVKLADGEVIKADIVVSNADSASTYRYLLPPETRKRWTDAKIEKSRYSMSLFVWYFGTKRRYEDVKHHTILLGPRYKELISDIFSRKVVAEDFSLYLHRPTATDPSLAPQGCDTFYVLSPVPNLLGDTDWHTKAETYRASIAKMLGATVLPDLENQIATSKITTPIDFQDRLSSFRGAAFGLEPVLWQSAWFRPHNQSEDVKRLYLVGAGTHPGAGLPGVLSSARVLDALVPEADSLVTSLEHHHHHH
soluble on expression in E. coli: not soluble

MGSDKIHHHHHHMSEEIELKFIVHPDSVESLLTQLAEWESDYSQYEHMRAQRLSNIYYETADNYLRRNGIGLRIRGENERYEMTAKTAGKVIGGLHQHPEYNVALETAELDLSLFPAEIWPEDCDVKTLQPSLNPLFSTDFTREKWVFTYYQSVIEVALDRGEIRAGDLSEPLCELEMELKVGQTTHLLALAKEIAEFGGMRQGSLSKAARGYHLAKGNPVRECLPLNRLVVDSKTNIDQAIRAALELALSHWQYHEELWVRGDSSAREALPQASALMREMLVLVGGVVLRRVTTLFRSALSTLENRLQGSGGSEICYSTDYLQSKLVLTSWLVESGWRDYMDNKDRIKLQGSFKRFADIMLSRSTAELKSAFSSKLTAEQYEQQIPRLQRNLYAFLLLSGAYPADQVEAYVEHWQTLLQEIEHLAVDQAPSVYLEAYRKEVLTLPPFWLHSGGPSQ
soluble on expression in E. coli: not soluble

MSLKILYISQEIFPYLPETDISVVSRKLPQTIQERGNEVRIFMPRYGIINERRNQLHEVIRLSGINMIINDNDHPLIIKVASIQSARMQVYFIDNDDFFKRKTMYDIKPKQENDNDERAIFFVRGALEAIKKLRWIPDVIHCHGWFTALAALYLKKMYADDPCLQKAKVVYSVYDDAGQGVIPETLFGKLGFDKITPDDLSVMEQSSDYLALNRLAIRYADGVIQGSETIAPELTDYISSLEGKAFLPYQGKEDYEEAFDNFYSDLLTANEGHHHHHH
soluble on expression in E. coli: soluble

EKKQAEEALIRSENNFRTLAENSPDIISRFDRQNRHIYVNPAAEEPYGRPPEEIIGKTHSELGMDPEKVKLWESHHEKVFATGKPESMEFGYTSSQGKEYYFNTQVVPEFIDGKVTSILVISHNIT
soluble on expression in E. coli: not soluble

MGSDKIHHHHHHMKDYTYSVTEINEYIKDLIEGDPYLTNVSVYGEISGVRPRKGHIFFSLVEENARLECVIFGGDNMGIRLQEGRMALVEGSVSVYIPHGTYRFICSNVRYLDQAGMYQIKFETTLKKLLEEGLLSRPKKTVPRFPRKIGIITSRDSAALQDVIRTARERKAPIEIYVFHTSVQGDSAREELIKALRKANEYDLDLVMIVRGGGSKEDLWVFNEEDVIREILRLRHPVVTGIGHEIDRVIADFVADVSMHTPTGAAEYVIPDASEIHEDLDSFFEKLITSLSNRFDMEERRLETLYFRLRMIGRRKLELNEFKIERVKELAAKLRKKLMDYFEHNQKKLDSLGRMLESLNPLRPLERGFVLVKKDEKIVKESTDLKRGDVVSLVFKDGTKKAQVIG
soluble on expression in E. coli: not soluble

MTMNIAVVSGRIAPELTLPGLNFSRAYAPSTDFRSARLGLLTGQYPQRQPVTRFASLIGTVAEDFSPADVHIIERAEITPDLLDQAHDSGAATFFVGHPTIDDHRVRMSLLWPGVTDTNLPHDTIDGVVTCNELVSTLDIAPTLAAIAGYDVRPNAQLSFDGMNLTPVIRYGATGHGGLFFDDGTVITPTEVRRQANDPEWTMWHQFMNMGPLQ
soluble on expression in E. coli: not soluble

MEQPYVYAYPQGSGPSGAPTPQAGGVVVDPKYCAPYPIDMAIVRKMMSLTDGNFVITDVNGNLLFKVKEPVFGLHDKRVLLDGSGTPVVTLREKMVSMHDRWQVFRGGSTDQRDLLYTVKRSSMLQLKTKLDVFLGHNKDEKRCDFRVKGSWLERSCVVYAGESDAIVAQMHRKHTVQSVFLGKDNFSVTVYPNVDYAFIASLVVILDDVNREDRAA
soluble on expression in E. coli: soluble

PGWEIIHENGRPLYYNAEQKTKLHYPP
soluble on expression in E. coli: soluble

KVDKKTYKNLIVELQQRMREIQFALYERKIPLVLVFEGMDAAGKGGNIKRIREKLDPTGYEVNGISAPTDVELKHHYLWRFAKKMPKSGHIEIFDRSWYGRVLVERVEGFASQNEWQRASDEINQFEKMWTDEGTIILKFFLCLDKDEQLKRFKDRENNPDKQWKITEEDWRNREKWDEYLEASHDMIESTNTSYAPWYIVPADHKKTSRIEVLKTIIRKCEEVLWGVKTY
soluble on expression in E. coli: not soluble
